From patent US20160159862A1 (PROTAGONIST THERAPEUTICS, published 2016)
Each block holds one binder with its values, some of them ahead of it. Bridge positions count the residues as written; N and C are the ends. Square brackets hold non-standard residues; d marks the D form. Phe(4-COOH) = N[C@@H](Cc1ccc(C(=O)O)cc1)C(=O)O; Bip = N[C@@H](Cc1ccc(-c2ccccc2)cc1)C(=O)O; 2Nal = N[C@@H](Cc1ccc2ccccc2c1)C(=O)O; NMeR = CN[C@@H](CCCNC(=N)N)C(=O)O; NMeK = CN[C@@H](CCCCN)C(=O)O; Pen = CC(C)(S)[C@H](N)C(=O)O

Experiments:
[1] = molecular target: α4β7 integrin on human cells (human) (UniProt P13612); test: FACS, human whole blood, 1 mM MnCl2, CD8 memory T cells
[2] = molecular target: α4β7 integrin on human cells (human) (UniProt P13612); test: FACS, human whole blood, 1 mM MnCl2, Eosinophils
[3] = molecular target: α4β7 integrin on human cells (human) (UniProt P13612); test: FACS, human whole blood, 1 mM MnCl2, Monocytes
[4] = molecular target: α4β7 integrin on human cells (human) (UniProt P13612); test: FACS, human whole blood, 1 mM MnCl2, CD19+ B cells
[5] = molecular target: α4β7 integrin on human cells (human) (UniProt P13612); test: FACS, human whole blood, 1 mM MnCl2, CD8 naïve T cells
[6] = molecular target: α4β7 integrin on human cells (human) (UniProt P13612); test: FACS, human whole blood, 1 mM MnCl2, NK cells CD16+ 56+
[7] = molecular target: α4β7 integrin on human cells (human) (UniProt P13612); test: FACS, human whole blood, 1 mM MnCl2, Basophils
[8] = molecular target: α4β7 integrin on human cells (human) (UniProt P13612); test: FACS, human whole blood, 1 mM MnCl2, CD4 naïve T cells
[9] = molecular target: soluble α4β7 integrin (Homo sapiens (Human)) (UniProt P13612); test: SPR, antibody on streptavidin chip, soluble α4β7 as analyte
[10] = molecular target: α4β7 integrin on human cells (human) (UniProt P13612); test: FACS, human whole blood, 1 mM MnCl2, CD4 memory T cells
[11] = molecular target: α4β7 integrin on human cells (human) (UniProt P13612); test: FACS, human whole blood, 1 mM MnCl2, Neutrophils
[12] = molecular target: T1, α4β1 (R&D Systems #5668-A4) (UniProt P13612 34-977; P05556 21-728); test: α4β1-VCAM competition ELISA
T1 construct: bought; also called soluble α4β1
Experimental: The solution was removed by shaking and then blocked with 250 ul of 1% BSA in 1×PBS per well. The wells were then incubated at room temperature for 1 hr with shaking. Each well was then washed once with wash buffer (50 mM Tris-HCl pH7.6, 100 mM NaCL, 1 mM MnCl2 or MgCl2, 0.05% Tween-20). 25 ul of serial dilutions of peptides starting at 200 μM in assay buffer (Assay buffer: 50 mM Tris-HCl pH7.6, 100 mM NaCl, 1 mM MnCl2 or MgCl2, 0.05% Tween-20) was added to each well. Additionally, 25 ul of α4β1 (R&D Systems #5668-A4) was added to each well at a fixed concentration of 120 nM. The final peptide and α4β1 concentrations were 100 μM and 60 nM, respectively. The plates were then incubated at 37° C. for 2 hr. The solution was then removed by shaking, and each well was washed three times with wash buffer. 50 ul of 9F10 antibody at 4 ug/ml (purified mouse anti-human CD49d, BD Bioscience Cat#555502) was then added to each well, and the plate was incubated at room temperature for 1 hr with shaking. The solution was again removed by shaking, and each well was washed three times with wash buffer. 50 ul of peroxidase-conjugated AffiniPure Goat anti-mouse IgG (Jackson immune research cat #115-035-003) diluted in 1:5000 in assay buffer was added to each well. The plate was incubated at room temperature for 30 min with shaking. […] The reaction was stepped with 2N H₂SO₄ and absorbance was read at 450 nm.

[13] = molecular target: rh integrin α4β7 (R&D Systems #5397-A30) (human) (UniProt P13612); test: α4β7-MAdCAM competition ELISA
[14] = molecular target: T2, α4β1 integrin on human cells (human, UniProt P13612 34-1032; P05556 21-798); test: cell-based or functional assay
[15] = molecular target: T3, α4β7 integrin on human cells (human, UniProt P13612 34-1032; P26010 20-798); test: cell-based or functional assay
[16] = molecular target: T4, α4β7 integrin on mouse TK1 cells (mouse, UniProt Q00651 41-1039; P26011 20-806); test: cell-based or functional assay
T4 sequence (Q00651 41-1039, chain 1 of 2): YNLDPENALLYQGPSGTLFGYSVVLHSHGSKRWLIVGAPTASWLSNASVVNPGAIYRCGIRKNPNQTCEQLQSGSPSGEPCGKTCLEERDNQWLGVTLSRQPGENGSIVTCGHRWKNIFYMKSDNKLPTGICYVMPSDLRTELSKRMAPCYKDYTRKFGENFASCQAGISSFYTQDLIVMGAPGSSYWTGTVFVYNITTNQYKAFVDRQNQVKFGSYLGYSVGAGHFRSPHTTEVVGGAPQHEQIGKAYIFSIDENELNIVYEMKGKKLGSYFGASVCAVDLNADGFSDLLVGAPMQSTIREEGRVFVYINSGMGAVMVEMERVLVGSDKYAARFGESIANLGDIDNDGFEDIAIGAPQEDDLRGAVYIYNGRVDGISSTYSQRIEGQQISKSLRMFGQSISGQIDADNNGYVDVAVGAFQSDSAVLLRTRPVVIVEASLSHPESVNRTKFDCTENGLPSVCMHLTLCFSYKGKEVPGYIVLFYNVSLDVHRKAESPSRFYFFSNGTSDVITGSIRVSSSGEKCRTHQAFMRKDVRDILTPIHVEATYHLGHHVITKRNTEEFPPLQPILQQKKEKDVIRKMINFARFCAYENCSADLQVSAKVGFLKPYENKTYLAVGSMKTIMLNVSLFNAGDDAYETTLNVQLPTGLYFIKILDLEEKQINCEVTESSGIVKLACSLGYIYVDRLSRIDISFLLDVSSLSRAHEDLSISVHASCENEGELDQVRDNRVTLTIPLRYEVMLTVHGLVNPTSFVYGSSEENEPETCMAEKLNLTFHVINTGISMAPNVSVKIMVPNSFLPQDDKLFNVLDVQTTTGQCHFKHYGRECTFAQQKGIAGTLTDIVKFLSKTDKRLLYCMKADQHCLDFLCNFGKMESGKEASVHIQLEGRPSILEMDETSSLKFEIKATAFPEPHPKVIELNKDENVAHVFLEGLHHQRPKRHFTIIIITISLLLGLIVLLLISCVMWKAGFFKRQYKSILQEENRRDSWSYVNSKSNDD
T4 sequence (P26011 20-806, chain 2 of 2): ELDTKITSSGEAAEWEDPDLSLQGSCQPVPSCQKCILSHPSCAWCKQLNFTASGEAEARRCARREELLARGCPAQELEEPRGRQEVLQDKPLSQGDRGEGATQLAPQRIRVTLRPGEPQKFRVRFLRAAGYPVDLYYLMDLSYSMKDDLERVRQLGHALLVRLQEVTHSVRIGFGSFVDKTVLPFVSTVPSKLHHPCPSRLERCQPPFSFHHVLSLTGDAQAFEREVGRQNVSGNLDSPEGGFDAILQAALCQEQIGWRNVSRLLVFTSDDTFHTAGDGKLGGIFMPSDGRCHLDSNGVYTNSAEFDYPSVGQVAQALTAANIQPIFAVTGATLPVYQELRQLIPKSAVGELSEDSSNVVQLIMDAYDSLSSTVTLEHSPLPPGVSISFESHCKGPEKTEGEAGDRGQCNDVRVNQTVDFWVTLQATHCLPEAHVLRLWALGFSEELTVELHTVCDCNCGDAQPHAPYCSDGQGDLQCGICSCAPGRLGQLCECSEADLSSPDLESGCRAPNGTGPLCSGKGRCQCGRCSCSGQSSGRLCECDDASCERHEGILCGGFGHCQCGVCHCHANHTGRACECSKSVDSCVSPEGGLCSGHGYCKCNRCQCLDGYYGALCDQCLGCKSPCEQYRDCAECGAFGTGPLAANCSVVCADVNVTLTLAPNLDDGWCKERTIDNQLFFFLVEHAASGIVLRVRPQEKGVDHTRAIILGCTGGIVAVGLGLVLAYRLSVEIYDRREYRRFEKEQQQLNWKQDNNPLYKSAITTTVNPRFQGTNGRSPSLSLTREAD

[17] = molecular target: α4β1 (R&D Systems #5668-A4) (UniProt P13612); test: α4β1-VCAM competition ELISA
[18] = molecular target: T3, α4β7 integrin on human cells; test: cell-based or functional assay; remark: listed apart in the source
[19] = molecular target: T4, α4β7 integrin on mouse TK1 cells; test: cell-based or functional assay; remark: listed apart in the source
[20] = molecular target: T2, α4β1 integrin on human cells; test: cell-based or functional assay; remark: listed apart in the source

B2: SEQ ID NO 129 (peptide)
peptide: Ac-[Pen][NMeR]SDTL[Pen][Phe(4-COOH)]E[dK]-NH2
modifications: disulfide 1-7; not fully specified (residue 10); printed as (Ac-Pen-(N-Me-R)-S-D-T-L-Pen-F(4-COOH)-E-k-NH2)2-DIG; also: homodimer of two subunits joined by DIG linker
IC50 [12]: > 100 nM

Binder: Ac-[Pen][NMeR]SDTL[Pen][2Nal]E[dK]-NH2 (disulfide 1-7 (inferred)) [SEQ ID NO 210]
IC50 [13]: 11 nM
Cell Adhesion α4β1 IC50 [14]: > 100000 nM
Cell Adhesion PBMC IC50 [15]: 517 nM
Cell Adhesion α4β7 IC50 [15]: 40 nM
Cell Adhesion α4β7 Mouse IC50 [16]: 60 nM
IC50 [17]: 200 nM

Binder: Ac-[Pen][NMeR]SDTL[Pen][Bip][b‑H‑E][NMeK]-NH2 (disulfide 1-7 (inferred); also: homodimer via DIG) [SEQ ID NO 150]
α4β7 cell (Hu) IC50 [18]: ≤ 10 nM
α4β7 cell(Mu) IC50 [19]: ≤ 10 nM
IC50 [13]: < 10 nM
IC50 [17]: > 1000 nM

Binder: Ac-[Pen][NMeR]SDTL[Pen][2Nal][dE][dK]-NH2 (disulfide 1-7 (inferred); also: homodimer via DIG linker) [SEQ ID NO 33]
α4β1 cell IC50 [20]: > 100000 nM
α4β7 cell (Hu) IC50 [18]: > 10 nM
IC50 [13]: < 10 nM
IC50 [17]: > 100 nM

Further lines, results first:

Percent positive staining [1]: 36%
Percent positive staining [2]: 91%
Percent positive staining [3]: 7%
Percent positive staining [4]: 85%
Percent positive staining [5]: 53%
Percent positive staining [6]: 42%
Percent positive staining [7]: 86%
Percent positive staining [8]: 55%
Half-life for dissociation [9]: 43 min
Kd [9]: 59.5 nM
koff [9]: 0.000266 s⁻¹
kon [9]: 4470 M⁻¹ s⁻¹
Percent positive staining [10]: 22%
Percent positive staining [11]: 0.45%
B1: biotin-labeled vedolizumab (antibody, INN chains, looked up, V domains shown)
VH: QVQLVQSGAEVKKPGASVKVSCKGSGYTFTSYWMHWVRQAPGQRLEWIGEIDPSESNTNYNQKFKGRVTLTVDISASTAYMELSSLRSEDTAVYYCARGGYDGWDYAIDYWGQGTLVTVSS
VL: DVVMTQSPLSLPVTPGEPASISCRSSQSLAKSYGNTYLSWYLQKPGQSPQLLIYGISNRFSGVPDRFSGSGSGTDFTLKISRVEAEDVGVYYCLQGTHQPYTFGQGTKVEIKR
modifications: biotin label

IC50 [13]: 2 nM
Cell Adhesion α4β1 IC50 [14]: > 100000 nM
Cell Adhesion α4β7 IC50 [15]: 2.5 nM
Cell Adhesion α4β7 Mouse IC50 [16]: 2.5 nM
IC50 [17]: 70 nM
Binder: Ac-[Pen][NMeR]SDTL[Pen][2Nal]E[dK]-NH2 (disulfide 1-7 (inferred); also: homodimer via DIG) [SEQ ID NO 212]
